B1: Cullin-associated NEDD8-dissociated protein 1 homolog (Saccharomyces cerevisiae), Q92325 (parent)
chain: MSLHISKLIEQYRSTKDNDLKYMLLRQNFKINDIEDELAPLVNELLLPVLVEEQDMEILNLVSFQVLPDLVLSMISDPAAAQLGWVISLICDPLLNQSMIHANRSFVLIETLRNVLQKIENSPHLDYHQPVNSSLEFISKFIVEMKRHMCDVDAAQLSHSLSESNMLIYIESLNLLLKFSFFSDAASPSVMVTLPFDILNDVFTIAQDYSATNTNESIDRITEKLLLTSTQLTHPVDLENLCPKMKYNTLAAVSRIWYKFGPIVDKLFTNRLLPVLFPPQMGEECNVEDVLEIVHNFHPYFSIRRLKDNRPLLSDSTISQLREGLFGMLSILNDSLTRTQNENDHGSDNLIDSDDGFGSDNDPEQQAYLDELVSEGYDENMYDGDTDDEDADDINVEKNDEATKDITETNKILLIFSELHYPQEERFSELLVELQTKIAINTSLIDKILSKETTELPTHNGEIADLNEILNEVKGNKPIRKNVIFCTLAHTLSLQSGSELSVLQLSIEVIDHLLVKNHSNNITRGEQFQLIKLILPHLKTNKSFIDTLKAGNFTQKIDEGVTLRTMILSLLLQLFPLDYSMLGEILPTIARYSVRDKDLGVRDLSFQLLDQILRTYYNYLIGIDWEWYKDDFYQVLQETCIKKDINTNLLLQFPPYLPHD
partner: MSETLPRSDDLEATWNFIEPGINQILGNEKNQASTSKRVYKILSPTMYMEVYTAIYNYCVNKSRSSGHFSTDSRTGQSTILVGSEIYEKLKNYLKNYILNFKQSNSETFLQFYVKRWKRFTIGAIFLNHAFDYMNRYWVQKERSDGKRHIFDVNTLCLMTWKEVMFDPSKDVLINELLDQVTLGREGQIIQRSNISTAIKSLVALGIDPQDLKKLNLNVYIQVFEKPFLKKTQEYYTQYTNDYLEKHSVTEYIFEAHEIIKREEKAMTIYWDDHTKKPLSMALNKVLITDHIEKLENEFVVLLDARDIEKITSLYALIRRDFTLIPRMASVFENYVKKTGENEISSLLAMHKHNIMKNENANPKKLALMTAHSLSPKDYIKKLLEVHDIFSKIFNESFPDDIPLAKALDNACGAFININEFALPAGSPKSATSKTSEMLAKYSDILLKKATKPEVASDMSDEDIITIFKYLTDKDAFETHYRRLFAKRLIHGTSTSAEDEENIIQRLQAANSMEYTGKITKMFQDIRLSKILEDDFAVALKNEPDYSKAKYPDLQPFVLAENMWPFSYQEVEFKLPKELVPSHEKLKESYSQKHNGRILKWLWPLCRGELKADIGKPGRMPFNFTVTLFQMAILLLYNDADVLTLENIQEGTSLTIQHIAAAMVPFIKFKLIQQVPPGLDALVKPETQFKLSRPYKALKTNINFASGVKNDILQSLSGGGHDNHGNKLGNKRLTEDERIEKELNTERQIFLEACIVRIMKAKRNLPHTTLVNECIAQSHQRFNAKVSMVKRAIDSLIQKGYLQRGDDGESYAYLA

Variants of: B1
Details: with cdc53_yeast CDC53, Q12018

Row | Variant | effect of a mutation on the interaction
1 | M23A | disrupting interaction
2 | D17A | disrupting interaction
3 | D19A | disrupting interaction
4 | Y22A | disrupting interaction

Variants of: B1
Details: with cdc53_yeast CDC53, Q12018
Remark: another data set of the same source

Row | Variant | effect of a mutation on the interaction
5 | N552A | decreasing interaction
6 | G551A | decreasing interaction
